Experimental data reported in paper PMC9284284.

Biological target: T1, TCP4 DNA-binding domain (Arabidopsis thaliana, UniProt Q8LPR5 45-103)
T1 sequence: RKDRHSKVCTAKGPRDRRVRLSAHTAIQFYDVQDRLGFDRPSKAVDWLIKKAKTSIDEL
Experiment: EMSA

B1: SOC1-DNA (dsDNA)
DNA 1: TAATTAGTTTGTGTGGTCCTCCTCCCGATA
DNA 2: TATCGGGAGGAGGACCACACAAACTAATTA
Q: Does B1 bind?
A: binds
